Experimental data published in patent US20230053603A1 (ADC THERAPEUTICS, published 2023).

T1: Human KAAG1 (Kidney associated antigen 1) (human, UniProt Q9UBP8 1-84)
T1 sequence: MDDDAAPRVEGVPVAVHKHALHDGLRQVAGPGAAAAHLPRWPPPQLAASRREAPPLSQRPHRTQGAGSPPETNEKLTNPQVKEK

T2: rat Dlk-1 (rat, UniProt O70534 24-306, limits assumed)
T2 sequence (looked up): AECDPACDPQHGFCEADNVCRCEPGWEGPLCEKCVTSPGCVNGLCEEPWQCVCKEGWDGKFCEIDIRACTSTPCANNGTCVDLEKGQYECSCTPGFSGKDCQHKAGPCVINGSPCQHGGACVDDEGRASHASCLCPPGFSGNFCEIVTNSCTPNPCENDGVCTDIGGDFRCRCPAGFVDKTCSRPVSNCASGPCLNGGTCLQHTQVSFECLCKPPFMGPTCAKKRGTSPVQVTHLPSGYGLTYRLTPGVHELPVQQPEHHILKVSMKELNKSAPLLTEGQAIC


Columns and labels:
[1] = target: T1, Human KAAG1 (Kidney associated antigen …); assay: cell-based or functional assay
rat Dlk-1 = target: T2, rat Dlk-1; assay: not described (stated in the heading of the rat toxicology study)

Binder | EC50, in vitro cytotoxicity (CellTiter-Glo) on MDA-MB-231 cells [1] [µg/mL] | EC50, in vitro cytotoxicity (CellTiter-Glo) on SN12C cells [1] [µg/mL] | binding result (rat Dlk-1)
ConjA2 (anti-KAAG1 antibody 3A4 conjugated to drug linker 4 / PL1601) (antibody, human IgG1, kappa, V domains shown, PBD drug linker PL1601 (4) attached through the remodelled glycan (GalNAc-N3) on Asn297; average DAR of 1.9) VH: QIQLVQSGAEVKKPGASVKVSCKASGYTFTDDYMSWVKQAPGQGLEWIGDINPYNGDTNYNQKFKGKATLTVDKSTSTAYMELSSLRSEDTAVYYCARDPGAMDYWGQGTLVTVSS VL: DIVMTQTPLSLPVTPGEPASISCRSSQSLLHSNGNTYLEWYLQKPGQSPQLLIYTVSNRFSGVPDRFSGSGSGTDFTLKISRVEAEDVGVYYCFQGSHVPLTFGQGTKLEIKR | 0.226 | 0.0663 | –
ConjA1 (anti-DLK1 antibody HuBa-1-3d conjugated to drug linker 4) (antibody, V domains shown, PBD drug linker 4 (PL1601) attached through the remodelled glycan (GalNAc-N3) on Asn297; average DAR of 1.87, also called anti-DLK1 ADC; ADC) VH: QVQLVQSGAEVKKPGASVKVSCKGSGYTFTDYAMHWVRQAPGQGLEWIGVISTYYGNTNYNQKFKGKATMTVDKSTSTAYMELRSLRSDDTAVYYCARGGLREYYYAMDYWGQGTMVTVSS VL: DIVMTQSPDSLAVSLGERATINCKSSQSLLNSSNQKNYLAWYQQKPGQPPKLLVYFASTRESGVPDRFSGSGSGTDFTLTISSLQAEDVAVYYCQQHYSTPPTFGQGTKLEIKR | – | – | no binding
